Measurements taken from publication PMC9249852, “Transcription factor paralogs orchestrate alternative gene regulatory networks by context-dependent cooperation with multiple cofactors”.

How the values were obtained:
Conditions in all cases: protein: recombinant;recombinant; tags: N-terminal 6xHis (pQE30) and EGFP with TEV linker; C-terminal FLAG;N-terminal T7; C-terminal 6xHis; copies: 1;1; label: 5' biotin on strand 2 (SR1 primer); blunt
[1] = target: T1, EGFP-Scr-FLAG;T7-Dll-His (Drosophila melanogaster?;Drosophila …, UniProt P09077;P20009 1-417;1-327, |); experiment: biotin-DNA pull-down, anti-FLAG western; Dll assists Scr binding; Dll on DNA not probed; Pull-down in 1 ml: 500 ul protein in dialysis buffer (20 mM HEPES pH 8.0, 200 mM NaCl, 10% glycerol, 2 mM MgCl2, 0.05% Tween-20) + 500 ul probe mix with 200 ul
T1 sequence (P09077 whole entry, chain 1 of 2): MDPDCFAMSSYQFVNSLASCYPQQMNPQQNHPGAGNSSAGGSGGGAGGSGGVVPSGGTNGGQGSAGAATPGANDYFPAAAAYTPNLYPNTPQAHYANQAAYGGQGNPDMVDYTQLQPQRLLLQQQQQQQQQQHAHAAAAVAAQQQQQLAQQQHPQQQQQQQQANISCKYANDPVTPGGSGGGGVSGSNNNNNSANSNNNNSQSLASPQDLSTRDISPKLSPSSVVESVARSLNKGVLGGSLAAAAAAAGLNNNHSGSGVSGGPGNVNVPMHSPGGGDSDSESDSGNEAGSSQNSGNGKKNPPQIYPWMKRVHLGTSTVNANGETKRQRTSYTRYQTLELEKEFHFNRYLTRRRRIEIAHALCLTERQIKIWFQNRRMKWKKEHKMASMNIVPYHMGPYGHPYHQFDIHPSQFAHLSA
T1 sequence (P20009 whole entry, chain 2 of 2): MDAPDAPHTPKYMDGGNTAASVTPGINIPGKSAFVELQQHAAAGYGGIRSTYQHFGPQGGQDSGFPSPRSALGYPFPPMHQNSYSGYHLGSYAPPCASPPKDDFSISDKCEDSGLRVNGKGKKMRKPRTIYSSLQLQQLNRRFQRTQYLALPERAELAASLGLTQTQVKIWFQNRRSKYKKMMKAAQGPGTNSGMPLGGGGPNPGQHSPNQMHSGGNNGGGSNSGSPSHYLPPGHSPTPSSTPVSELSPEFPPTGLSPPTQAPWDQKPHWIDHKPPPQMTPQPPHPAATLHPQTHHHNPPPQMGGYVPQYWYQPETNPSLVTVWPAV

[2] = target: T1, EGFP-Scr-FLAG;T7-Dll-His; experiment: biotin-DNA pull-down, anti-FLAG western; Dll increases Scr binding, concentration-dependent; Dll on DNA not probed; Pull-down in 1 ml: 500 ul protein in dialysis buffer (20 mM HEPES pH 8.0, 200 mM NaCl, 10% glycerol, 2 mM MgCl2, 0.05% Tween-20) + 500 ul probe mix with 200 ul
[3] = target: T1, EGFP-Scr-FLAG;T7-Dll-His; experiment: biotin-DNA pull-down, anti-FLAG western; Dll enhances Scr binding; Dll on DNA not probed; Pull-down in 1 ml: 500 ul protein in dialysis buffer (20 mM HEPES pH 8.0, 200 mM NaCl, 10% glycerol, 2 mM MgCl2, 0.05% Tween-20) + 500 ul probe mix with 200 ul

B1: probe-dpy (dpy-1) (dsDNA)
DNA 1: ATCGTTAAATTACCGCAATTTGCATGTTCGTATGCCGTCTTCTGCTTG
DNA 2: CAAGCAGAAGACGGCATACGAACATGCAAATTGCGGTAATTTAACGAT
- binding result [1]: binds

B2: probe-Scr-Dll consensus (dsDNA)
DNA 1: TGGGCCTGGTAATTAATTTAATTATCCAGGTCGTATGCCGTCTTCTGCTTG
DNA 2: CAAGCAGAAGACGGCATACGACCTGGATAATTAAATTAATTACCAGGCCCA
- binding result [2]: binds

B3: probe-dsx (dsx-1) (dsDNA)
DNA 1: AATATTTTATAAATTTAATAAATTGAGTCGTATGCCGTCTTCTGCTTG
DNA 2: CAAGCAGAAGACGGCATACGACTCAATTTATTAAATTTATAAAATATT
- binding result [3]: binds
